Measured values: publication PMC11209852

B1: auxilin (natural protein)
chain: MKDSENKGASSPDMEPSYGGGLFDMVKGGAGRLFSNLKDNLKDTLKDTSSRVIQSVTSYTKGDLDFTYVTSRIIVMSFPLDNVDIGFRNQVDDIRSFLDSRHLDHYTVYNLSPKSYRTAKFHSRVSECSWPIRQAPSLHNLFAVCRNMYNWLLQNPKNVCVVHCLDGRAASSILVGAMFIFCNLYSTPGPAIRLLYAKRPGIGLSPSHRRYLGYMCDLLADKPYRPHFKPLTIKSITVSPIPFFNKQRNGCRPYCDVLIGETKIYSTCTDFERMKEYRVQDGKIFIPLNITVQGDVVVSMYHLRSTIGSRLQAKVTNTQIFQLQFHTGFIPLDTTVLKFTKPELDACDVPEKYPQLFQVTLDVELQPHDKVIDLTPPWEHYCTKDVNPSILFSSHQEHQDTLALGGQAPIDIPPDNPRHYGQSGFFASLCWQDQKSEKSFCEEDHAALVNQESEQSDDELLTLSSPHGNANGDKPHGVKKPSKKQQEPAAPPPPEDVDLLGLEGSAMSNSFSPPAAPPTNSELLSDLFGGGGAAGPTQAGQSGVEDVFHPSGPASTQSTPRRSATSTSASPTLRVGEGATFDPFGAPSKPSGQDLLGSFLNTSSASSDPFLQPTRSPSPTVHASSTPAVNIQPDVSGGWDWHAKPGGFGMGSKSAATSPTGSSHGTPTHQSKPQTLDPFADLGTLGSSSFASKPTTPTGLGGGFPPLSSPQKASPQPMGGGWQQGGAYNWQQPQPKPQPSMPHSSPQNRPNYNVSFSAMPGGQNERGKGSSNLEGKQKAADFEDLLSGQGFNAHKDKKGPRTIAEMRKEEMAKEMDPEKLKILEWIEGKERNIRALLSTMHTVLWAGETKWKPVGMADLVTPEQVKKVYRKAVLVVHPDKATGQPYEQYAKMIFMELNDAWSEFENQGQKPLY
B2: EPS15 (natural protein)
chain: MAAAAQLSLTQLSSGNPVYEKYYRQVDTGNTGRVLASDAAAFLKKSGLPDLILGKIWDLADTDGKGILNKQEFFVALRLVACAQNGLEVSLSSLNLAVPPPRFHDTSSPLLISGTSAAELPWAVKPEDKAKYDAIFDSLSPVNGFLSGDKVKPVLLNSKLPVDILGRVWELSDIDHDGMLDRDEFAVAMFLVYCALEKEPVPMSLPPALVPPSKRKTWVVSPAEKAKYDEIFLKTDKDMDGFVSGLEVREIFLKTGLPSTLLAHIWSLCDTKDCGKLSKDQFALAFHLISQKLIKGIDPPHVLTPEMIPPSDRASLQKNIIGSSPVADFSAIKELDTLNNEIVDLQREKNNVEQDLKEKEDTIKQRTSEVQDLQDEVQRENTNLQKLQAQKQQVQELLDELDEQKAQLEEQLKEVRKKCAEEAQLISSLKAELTSQESQISTYEEELAKAREELSRLQQETAELEESVESGKAQLEPLQQHLQDSQQEISSMQMKLMEMKDLENHNSQLNWCSSPHSILVNGATDYCSLSTSSSETANLNEHVEGQSNLESEPIHQESPARSSPELLPSGVTDENEVTTAVTEKVCSELDNNRHSKEEDPFNVDSSSLTGPVADTNLDFFQSDPFVGSDPFKDDPFGKIDPFGGDPFKGSDPFASDCFFRQSTDPFATSSTDPFSAANNSSITSVETLKHNDPFAPGGTVVAASDSATDPFASVFGNESFGGGFADFSTLSKVNNEDPFRSATSSSVSNVVITKNVFEETSVKSEDEPPALPPKIGTPTRPCPLPPGKRSINKLDSPDPFKLNDPFQPFPGNDSPKEKDPEIFCDPFTSATTTTNKEADPSNFANFSAYPSEEDMIEWAKRESEREEEQRLARLNQQEQEDLELAIALSKSEISEA
B3: AP180 (natural protein)
chain: MSGQTLTDRIAAAQYSVTGSAVARAVCKATTHEVMGPKKKHLDYLIQATNETNVNIPQMADTLFERATNSSWVVVFKALVTTHHLMVHGNERFIQYLASRNTLFNLSNFLDKSGSHGYDMSTFIRRYSRYLNEKAFSYRQMAFDFARVKKGADGVMRTMAPEKLLKSMPILQGQIDALLEFDVHPNELTNGVINAAFMLLFKDLIKLFACYNDGVINLLEKFFEMKKGQCKDALEIYKRFLTRMTRVSEFLKVAEQVGIDKGDIPDLTQAPSSLMETLEQHLNTLEGKKPGNNEGSGAPSPLSKSSPATTVTSPNSTPAKTIDTSPPVDLFATASAAVPVSTSKPSSDLLDLQPDFSSGGAAAAAAPAPPPPAGGATAWGDLLGEDSLAALSSVPSEAQISDPFAPEPTPPTTTAEIATASASASTTTTVTAVTAEVDLFGDAFAASPGEAPAASEGAAAPATPTPVAAALDACSGNDPFAPSEGSAEAAPELDLFAMKPPETSVPVVTPTASTAPPVPATAPSPAPAVAAAAAATTAATAAATTTTTTSAATATTAPPALDIFGDLFESTPEVAAAPKPDAAPSIDLFSTDAFSSPPQGASPVPESSLTADLLSVDAFAAPSPATTASPAKVDSSGVIDLFGDAFGSSASEPQPASQAASSSSASADLLAGFGGSFMAPSPSPVTPAQNNLLQPNFEAAFGTTPSTSSSSSFDPSVFDGLGDLLMPTMAPAGQPAPVSMVPPSPAMAASKALGSDLDSSLASLVGNLGISGTTTKKGDLQWNAGEKKLTGGANWQPKVAPATWSAGVPPSAPLQGAVPPTSSVPPVAGAPSVGQPGAGFGMPPAGTGMPMMPQQPVMFAQPMMRPPFGAAAVPGTQLSPSPTPASQSPKKPPAKDPLADLNIKDFL

Target: GST-fused human AP-2 alpha-C (AP2A2) appendage domain, Ser923Gly (human) (UniProt O94973)
Assay: pull-down

Sequence of UniProt O94973 (O94973 whole entry S923G, the tested form may be a part): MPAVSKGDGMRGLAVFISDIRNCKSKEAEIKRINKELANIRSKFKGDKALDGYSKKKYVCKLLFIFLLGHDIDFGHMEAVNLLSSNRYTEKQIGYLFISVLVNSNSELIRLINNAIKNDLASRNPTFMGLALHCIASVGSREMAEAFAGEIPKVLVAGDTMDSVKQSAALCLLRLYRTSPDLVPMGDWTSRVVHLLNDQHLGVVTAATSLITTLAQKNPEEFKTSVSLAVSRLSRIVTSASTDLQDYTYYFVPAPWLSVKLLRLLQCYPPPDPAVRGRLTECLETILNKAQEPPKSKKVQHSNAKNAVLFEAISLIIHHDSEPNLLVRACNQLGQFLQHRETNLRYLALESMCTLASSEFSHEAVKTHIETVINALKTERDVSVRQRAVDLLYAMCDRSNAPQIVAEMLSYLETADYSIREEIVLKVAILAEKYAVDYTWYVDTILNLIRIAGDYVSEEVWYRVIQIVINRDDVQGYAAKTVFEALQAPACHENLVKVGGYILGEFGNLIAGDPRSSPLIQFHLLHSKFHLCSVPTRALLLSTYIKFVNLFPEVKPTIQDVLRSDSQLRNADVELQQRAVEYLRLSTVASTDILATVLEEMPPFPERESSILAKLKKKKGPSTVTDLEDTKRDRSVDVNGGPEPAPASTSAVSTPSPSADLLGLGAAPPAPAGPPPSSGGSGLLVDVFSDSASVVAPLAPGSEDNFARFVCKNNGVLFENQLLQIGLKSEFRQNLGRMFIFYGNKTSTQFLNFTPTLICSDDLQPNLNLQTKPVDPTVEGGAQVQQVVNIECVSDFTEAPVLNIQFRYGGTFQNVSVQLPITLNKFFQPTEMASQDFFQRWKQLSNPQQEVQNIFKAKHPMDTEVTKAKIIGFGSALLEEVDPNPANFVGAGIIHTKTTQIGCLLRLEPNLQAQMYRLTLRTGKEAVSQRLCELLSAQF

percent reduction of pulled-down signal against wildtype AP2A2-ear [%]	Molecule
20	amphiphysin (from UniProt P49418 1-695) (natural protein)
70	B1
30	B2
80	B3
